Measured values: the DeepSol protein solubility set

Assay: soluble on expression in E. coli; label from the status in PepcDB or PDB records

Sequence	soluble on expression in E. coli
RTRKGIELIPLDQVIYFIADHKYVTLRHEGGEVLLDEPLKALEDEFGDRFVRIHRNALVARKRIESMKRTPVGHFELFLRGLNGDALIVSRRHVAGVRKMMQQL	not soluble
ARPKGIRIGYLPQVMRLQDGHTVYEEVEQAFNDIRQIEEEIRRLSDEMAGRTDYESDDYIRLIEHYTNMSETLSLMQQGNYHAAIEQTLIGLGFGREDFHRPTADFSGGWRMRIELAKLLLQRPEVLLLDEPTNHLDIESIGWLEQFIATNAGAVILVSHDRAFIDNTTTRTIEIELGHIYDYKTNYSHYVELREERLRQQMRAYENQQKMIRDTEDFIERFRYKATKSVQVQSRIKQLEKVERVEIDERDRSAFHFRFIPAQPSGSYP	not soluble
MEITNVNEYEAIAKQKLPKMVYDFYASGAEDQWTLAENRNAFSRILFRPRILIDVTNIDMTTTILGFKISMPIMIAPTAMQKMAHPEGEYATARAASAAGTIMTLSSWATSSVEEVASTGPGIRFFQLYVYKDRNVVAQLVRRAERAGFKAIALTVDTPRLGRREADIKNRFVLPPFLTLKNFEGIDLGKMDKANDSGLSSYVAGQIDRSLSWKDVAWLQTITSLPILVKGVITAEDARLAVQHGAAGIIVSNHGARQLDYVPATIMALEEVVKAAQGRIPVFLDGGVRRGTDVFKALALGAAGVFIGRPVVFSLAAEGEAGVKKVLQMMRDEFELTMALSGCRSLKEISRSHIAADWDGPSSRAVARL	soluble
MRARSDAGGQSVKSRTSNRSRSSRRSRVRSSISALVDNPQARPRELPVLCGWPVVRVEPVCEFVPEPVCGQAEVLGEPAAAHRVTSARRSPSTTVCSRSQKASAVVISSVSSVARVRRASVSSVDATTA	not soluble
GEIWVYIDHIGEKPNRASFEIMGEARRIADLMDTSLSAVMVGGEATKSLIEETFEYGADKVYFVETKGFDRYDNEVYTRALAKVIKKYKPEAVFFPGTKNARELASTTAIEVDTGLIADCTNFDVDDKGVLLSTRPDFGGKEMSTIICPRHRPVMVTVRAGVFMPLPRVPGRKGELAREEIDDLFTRLKVLDYRVIEKRNI	not soluble
MLTMKFLVPVDFSEITNPLLRTVKRVGEKVDCEVHLLHVIPPVLYLPYPETMGVSVIDIELLEKLEDEKKAEAKEKLKALEEFLKPVKARSHVDVGDPADVILDYEEKLNPDMVFLGGHKKGLIEKLLIGSTTEKVVKHGKKSDFVIKGSEVEFRKKVVIAYDFSKTAQKTAEFALKFLKNFKVSVEIVHVHESIEMPLIEKLKHKIEKEFSEEKKKILNELKGRFEEEGIKTEVKFLEGEDAVDVISSYVNETPEVELLIIGSKGLSGLKKLILGRTATKLLGKVNKPILIYKVQE	soluble
SMKFQARVLTLYPEMFPGFLGCSLAGQALKQGIWSLETVQIRDFALDKHHSVDDTPAGGGAGMVMRADVLAAALDSCPNDSPRLLMSPRGRLLNQAYARSLARSSGVTLVCGRFEGVDERIIEARELEEVSIGDYILSGGETAALVLLDAIVRLLPGVMGNEISAKCESFENGLLEHPQYTRPAVFEGRGIPPVLTSGHHKAIANWRQQQAESLTRQRRPDLYALYNKNRQKT	soluble
MGSDKIHHHHHHMALRSMDELRQQAQGALSLNIAFIGVVNGLFSTLHALGNADSAALAAATGMDTGYVLRWCDAAYAFGWLELTDNEQWRLSEDGDRMRPEAENSRVGVAVGAVLSAHMAERAAGLMRTGERPGEKVLAERETILPWFGLMLENNFRKTFEEKICPTVPIFAEVDARGGLAVDLGCGNGWYLRALAARCGHLHGLGLDGFAENIRQATEKAQSEGIADRLHFDEGDIHQFSLPEPADLIAMNRSLHHVWENRGEIFQRLHASLKPEGAIVIWEPAWPDDHRVLREPPLRGMAFQNLTEHVQGNHFLHPEEIATALSEAGLHPEIFPFGSDVVVVGRV	not soluble
MIHTLAKCEWIKKSLPLCLIGDSGTGKSHLLIALGTEAAMAGYRVKYVLATKLVNELVEAADEKQLTKTIARYGRVDLLCIDELGYMELDRRGAELLFQVLTEREEKNSVAIASNESFSGWTKTFTDPRLCAAIVDRLTFGGNIIETGTDSYRLATTRARAEQQAVVLEHHHHHH	not soluble
LFPSFLKPLAAHALELALNRLLTLDPDTSQALRTLDGQCIALSLKTPAVELQIRVDGECLRVGPVDAAYEMDLKVHGTLAGFLGQLPWLEQVRRAGGAQTGRLRVAGDAELAQRLQQLARRFDPDWQQPFIVVFGELLGVQIAGVLRMTLRQLQRSAVDLAQSAAEFITEESSSVVPRAELEAFYEDVDVLRDDVERLATRLMKLCSEMAA	not soluble
MKVGVVGLQGDVSEHIEATKMAIEKLELPGEVIWLKRPEQLKGVDAVIIPGGESTTISRLMQRTGLFEPIKKMVEDGLPVMGTCAGLIMLAKEVLGATPEQKFLEVLDVKVNRNAYGRQVDSFEAPVKLAFDDEPFIGVFIRAPRIVELLSEKVKPLAWLEDRVVGVEQENIIGLEFHPELTNDTRIHEYFLRKVI	soluble
MLDTAAIIISQGKKIAYAYAEGVNDNMTQSHFHDFFELYYLLEGERMHMIEGEIYHLTANDFVLFPPHIMHHSYGEKDMPFKRIVLYFSPDLIANDTICQLLSEKELLFVNEGYIPNQILSLLLSLTHEIDVPGKYHDAYICNQLNGLLLNMLRLDFEAVKSIPKTRSAKAVDYIHNHYMEDISVNQLAEILYVSPYHLCHEFKNATGKTIIQYLNTTRILHAQRLMLETDYNITQISREVGFSNLTHFNRTFKKITGVAPREKKKLYQK	not soluble
MGSDKIHHHHHHMICMAVGIASLLFNIEEALNICESIKQITHLEIGIDNISECSELCKYKERISKLGLSIGIHLPMELNTCENIEYIRNSWINFIEKIEFELKGFDLRYFNLHLGYVMTNRVRKNRDKYLGNSVDFLDKLNTNSYVCIENTYSKGGDFSNIGNISYDFEYIFKRIKNSKICFCYDTGHCLIDEDAYVKNLKDKIRLIHLSDNDGINDTHVGIGRGILSEEGIKEVLTLDAEYLVLEINYEDIEDTISKLNNIVGEG	not soluble
VSSQKTSSLPKYTPKVNSSINNYIRKKNMKAPRIEEDYTSYFPKYGYRNGVGRPEGIVVHDTANDNSTIDGEIAFMKRNYTNAFVHAFVDGNRIIETAPTDYLSWGAGPYGNQRFINVEIVHTHDYDSFARSMNNYADYAATQLQYYNLKPDSAENDGRGTVWTHAAISNFLGGTDHADPHQYLRSHNYSYAELYDLIYEKYLIKTKQVAPWG	soluble
MGLVTSILGRREYRLLQNSVTKKHLCKFMGVEFDYNDLDEITEIRVGENIFDTFESYARFAMKDTMKSIFAECKAMKTCLARIEREKQTEASMNHKIRQCYITLRRLCQLYYKFYQDLEKLKIPEHAWNVPLVKKAEKSIVVLDHAIYKFKAKGNLDVKKFREEVSHQYNIIEEVLKQFKSMDEGEYVEMRMKEEMKTEEA	not soluble
MGSDKIHHHHHHMSTNISWTDETINPIVGCSRISAGCQNCYASTAAASARLQQFPQYQKVKDWNGTVEFAESALLKPLSWKKPKRIFVCSMSDLFHENVPDQWRDRVFGIMAAAHWHIFQVLTKRPLNALKYFQNFNLAQRIKDAGNLVCKPELPLKNVWFGVTCENQEMADKRIPILLQIPAKVRFLSCEPLLEEIDLSEVFGLYEYEEGKFALKVGSRWESSPDWVIVGGESGKDARVCHIDWVRSLTRQCQAAEVPVFVKQLGSNCIESLPYIAGVPSTDYQFKTSDRKGGDISEFPEDLQVRKFPDIHKTR	not soluble
MRKPTYHQINPLIRLKETELLSEQQFQQLLEAETVEDVRNMLKSTVYQPYLTETFEEKFDYHSSEALGSLYRWLYEMAPEPAVVTLYTMRFTFHNLKILTKAERTGKDFDYLYLEDGRYSLNTVKSAIHTKNSSELEPALLEVIRDVFAYLEEGGLPQAIDILYDRAFLQQQRKLADELGYEELTKEVIAFIDLTNLSTMARGIVQHQNSNFLSTVLSSAGSITKKELLTYAEKSLVEFTAFVRTTNYGQLLEKIINKETNELNLLAFEKLKDDYLTSMYENGRTVAFGPLPLLAFLNAKEVEWKNLRLILVGKHSGFSNEKIRERMRKVNGV	not soluble
MSLSSFEGKVAVITGAGSGIGRALALNLSEKRAKLALSDVDTDGLAKTVRLAQALGAQVKSDRLDVAEREAVLAHADAVVAHFGTVHQVYNNAGIAYNGNVDKSEFKDIERIIDVDFWGVVNGTKAFLPHVIASGDGHIVNISSLFGLIAVPGQSAYNAAKFAVRGFTEALRQEMLVARHPVKVTCVHPGGIKTAVARNATVADGEDQQTFAEFFDRRLALHSPEMAAKTIVNGVAKGQARVVVGLEAKAVDVLARIMGSSYQREGHHHHHH	not soluble
MTEPSTSGAQDHDDYLVTLSSPQRQCTIRVVQPASALKRKLPTSSVPEFNPDSYGESIPENAPRPVCETCSVAWSTWAAYEFHMLQTHIIYRPFRCSGCRNLNFHTEDEGKHHLEHFHGGKPGSFQLIKQTDFAKENQLIECLENAKTTEQLGISKERLENGLKMIEKLQKIKFKAVKVHLPCCLRHEMISKHTETEKEAPPQEKSVTNAQKPGNPALLSLESRNYDYEQQDTVGI	not soluble
MGSDKIHHHHHHMLKKVSRLDYFTLQVFIGLVELKSGSAVAERLRTTQSKVSRCLTCLREVLEDELFIRQQYGFEPNQVAVTIYPMVKTILEQYDKIVAATIDKGAEPYQLSVATYEQWSLMAMNCVHNTCHCIEGGVSINIQPWTDKIHQRLCQGKVDCSISTEPINHPMVNNFKLGDITHFFIVARRGHPILSSDAPLTQMFNYHIALVNTHLQEQEPHPIEVYAKARHIEIRVALKSPSLRMVVDHVSHSEDIALLSSAMSMAYFENRDDVDYLDISKIWLQTTELETQSYYLHCHKGIKPELTHCLRRVLTEKLHEMQAHCDQVAQENTRDLPTL	not soluble
MGSDKIHHHHHHMKKIAILYPAHYEQSSGGAEIQILYLINACKQQNWEIHYIFEDKGTDIKNKENIVLHPLCKMKNYKFCGKGWFLYEKQILRELNAIKPDTIYTRIGSSWIGIATSYAKNHKVKHAHALASDSSVTRKLLGKPLYPLFSQIETYYINKGLVGADVIIAQNVFQQQMLSKRYGKESILVNQMTPSVDESCLQKKYNKIKIIWVANFKELKHPELFVQLAKDLKGHSDRIEMYMCGRSTSKYNNLLQDLNHIDYLNYLGSLDQEQVFDLMNEAHILVNTSEYEGFSNTFVQAWMRKVVVVSMNSNPSDILTSQGIGFLTPNMTNLVATIHKLIEHPEIISELGEKSYQYALENHDLNKNMKKIIEVL	not soluble
LGIAGLRYTFTFAVATAPSELLNITWYSAVSAAFNGALKFSITPLLPLGPITDERVEVSITALTPLSGVRSTSTALTPVRLCSAFAILFTDTKAEKLEFFEDTTERVDGDAVIPHTVNSETAALPTPFS	not soluble
MGEHKQNLSLQDMTHSDTGQIAYLKKVCTDDLAKNFPDLPPMTPGITVWALFGETGYPIILSDERSIALAGANEHELQIVTLH	not soluble
MGSDKIHHHHHHMAQIIAVHSFRGGTGKSNLIANMAATMALQGQRVGIIDTDIQSPGIHVIFGINENKMERTLNDYLWGYCNIKDAAYDVTEALAIEQGNTSTVKGSLHLVPCSIKASEIARVLREGYDVVRLNDGFQEFIRSLKLDYLLIDTHPGLNEETLLSIGISNVLVILLRPDHQDFQGTAVTVDVARKLKVPKMLLVINKVLPSLNFLDLQQQVEKIYNAPVVGILPLSEDMVQLASKGLFSLRYPQHPISQTIKGITNQIASLVVSH	not soluble
